Results taken from IntAct's records for PubMed 10921873.

Columns and labels:
[1] = molecular target: copb_yeast SEC26 (UniProt P41810)
[2] = molecular target: cope_yeast SEC28 (UniProt P40509)
[3] = molecular target: gcs1_yeast GCS1 (UniProt P35197)
[4] = molecular target: glo3_yeast GLO3 (UniProt P38682)
[5] = molecular target: copb_yeast SEC26 (UniProt P41810); remark: listed apart in the source
[6] = molecular target: glo3_yeast GLO3 (UniProt P38682); remark: listed apart in the source
[7] = molecular target: gcs1_yeast GCS1 (UniProt P35197); remark: listed apart in the source
[8] = molecular target: cope_yeast SEC28 (UniProt P40509); remark: listed apart in the source

Measured: effect of a mutation on the interaction

Sequence of ADP-ribosylation factor 1 (Homo sapiens), P84077 Q71L (P84077 whole entry Q71L): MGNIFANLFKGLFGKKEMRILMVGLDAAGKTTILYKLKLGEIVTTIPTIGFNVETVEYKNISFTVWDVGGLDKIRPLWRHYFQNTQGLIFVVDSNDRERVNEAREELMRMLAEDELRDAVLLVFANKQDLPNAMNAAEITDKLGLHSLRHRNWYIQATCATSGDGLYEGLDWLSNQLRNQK
Sequence of cope_yeast SEC28 (P40509 whole entry): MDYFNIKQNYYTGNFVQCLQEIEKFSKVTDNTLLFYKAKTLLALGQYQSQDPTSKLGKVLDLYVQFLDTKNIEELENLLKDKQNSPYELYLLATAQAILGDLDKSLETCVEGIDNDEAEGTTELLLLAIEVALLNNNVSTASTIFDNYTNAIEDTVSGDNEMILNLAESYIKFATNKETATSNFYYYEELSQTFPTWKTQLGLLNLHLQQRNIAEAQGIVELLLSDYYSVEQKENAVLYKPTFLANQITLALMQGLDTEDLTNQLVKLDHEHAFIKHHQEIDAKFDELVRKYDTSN
Sequence of gcs1_yeast GCS1 (P35197 whole entry): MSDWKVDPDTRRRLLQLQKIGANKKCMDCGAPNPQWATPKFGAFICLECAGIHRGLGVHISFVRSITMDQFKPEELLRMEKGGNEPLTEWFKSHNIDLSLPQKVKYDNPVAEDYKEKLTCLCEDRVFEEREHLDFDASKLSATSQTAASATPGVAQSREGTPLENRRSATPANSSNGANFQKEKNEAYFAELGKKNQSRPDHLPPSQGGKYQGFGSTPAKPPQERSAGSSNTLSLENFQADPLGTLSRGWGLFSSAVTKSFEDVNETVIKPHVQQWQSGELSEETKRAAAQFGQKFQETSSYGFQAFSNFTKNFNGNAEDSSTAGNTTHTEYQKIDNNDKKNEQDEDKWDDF
Sequence of copb_yeast SEC26 (P41810 whole entry): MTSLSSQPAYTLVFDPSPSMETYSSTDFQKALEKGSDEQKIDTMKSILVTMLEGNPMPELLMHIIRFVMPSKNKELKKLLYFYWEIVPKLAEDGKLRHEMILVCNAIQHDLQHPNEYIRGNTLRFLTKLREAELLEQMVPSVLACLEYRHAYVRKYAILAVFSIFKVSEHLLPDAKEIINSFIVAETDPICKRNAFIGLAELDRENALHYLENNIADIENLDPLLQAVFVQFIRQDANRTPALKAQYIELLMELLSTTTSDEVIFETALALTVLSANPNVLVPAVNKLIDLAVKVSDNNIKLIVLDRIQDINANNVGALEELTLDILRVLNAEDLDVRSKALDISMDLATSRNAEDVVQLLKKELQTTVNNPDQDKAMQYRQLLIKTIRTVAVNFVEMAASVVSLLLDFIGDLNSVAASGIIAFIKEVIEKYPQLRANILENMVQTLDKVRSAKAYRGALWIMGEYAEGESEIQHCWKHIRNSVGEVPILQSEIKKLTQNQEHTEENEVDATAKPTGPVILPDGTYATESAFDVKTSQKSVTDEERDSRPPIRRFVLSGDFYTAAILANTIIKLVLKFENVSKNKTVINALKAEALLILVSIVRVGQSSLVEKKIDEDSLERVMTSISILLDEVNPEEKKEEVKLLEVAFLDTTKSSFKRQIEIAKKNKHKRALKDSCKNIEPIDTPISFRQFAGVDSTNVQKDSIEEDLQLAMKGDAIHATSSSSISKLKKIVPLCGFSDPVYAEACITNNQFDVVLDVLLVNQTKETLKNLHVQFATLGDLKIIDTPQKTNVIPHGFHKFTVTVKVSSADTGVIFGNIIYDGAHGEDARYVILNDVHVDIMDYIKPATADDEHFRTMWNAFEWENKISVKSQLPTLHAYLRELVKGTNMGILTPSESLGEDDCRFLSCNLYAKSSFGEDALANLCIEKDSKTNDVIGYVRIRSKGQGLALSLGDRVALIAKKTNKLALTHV
Sequence of glo3_yeast GLO3 (P38682 whole entry): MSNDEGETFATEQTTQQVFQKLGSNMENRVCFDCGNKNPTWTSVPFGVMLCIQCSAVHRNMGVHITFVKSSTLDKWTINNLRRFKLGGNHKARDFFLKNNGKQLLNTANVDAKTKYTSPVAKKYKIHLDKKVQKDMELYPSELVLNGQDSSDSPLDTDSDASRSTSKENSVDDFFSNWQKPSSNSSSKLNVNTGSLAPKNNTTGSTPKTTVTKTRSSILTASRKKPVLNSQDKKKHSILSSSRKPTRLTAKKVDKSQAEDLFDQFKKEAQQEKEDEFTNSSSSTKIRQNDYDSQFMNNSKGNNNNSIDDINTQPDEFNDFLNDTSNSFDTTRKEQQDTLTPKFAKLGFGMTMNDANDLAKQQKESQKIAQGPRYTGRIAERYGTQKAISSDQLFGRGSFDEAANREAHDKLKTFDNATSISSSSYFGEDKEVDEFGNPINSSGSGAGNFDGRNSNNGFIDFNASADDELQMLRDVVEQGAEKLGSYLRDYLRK

ADP-ribosylation factor 1 (Homo sapiens), P84077 N126I
increasing interaction: [1] | [2] | [3] | [4]

ADP-ribosylation factor 1 (Homo sapiens), P84077 Q71L
increasing interaction: [5] | [6] | [7] | [8]
